The results in this text go back to patent US20200247894A1 (Regeneron, published 2020).

The target of assay [1] is T1, D2 domain of human IL2Rγ extracellular domain expressed with a C-terminal myc-myc-hexahistidine tag (human).
T1 construct: also called human IL2Rγ domain 2
T1 chain: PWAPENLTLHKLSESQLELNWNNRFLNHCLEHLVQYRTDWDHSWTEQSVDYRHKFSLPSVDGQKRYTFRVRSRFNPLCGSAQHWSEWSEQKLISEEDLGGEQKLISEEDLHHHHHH
As to the kind of experiment: SPR, mAb captured on anti-hFc, 25 C. As to the method: (§1) Equilibrium dissociation constants (KD values) for IL-2Rγ binding to purified anti-IL2Rγ monoclonal antibodies were determined using a Biacore 4000 instrument equipped with a real-time surface plasmon resonance biosensor. All binding studies were performed in 10 mM HEPES, 150 mM NaCl, 3 mM EDTA, and 0.05% v/v Surfactant Tween-20, pH 7.4 (HBS-ET) running buffer at 25° C. and 37° C. The Biacore sensor surface was first derivatized by amine coupling with a monoclonal mouse anti-human Fc antibody (GE, # BR-1008-39) to capture anti-IL2Rγ monoclonal antibodies.

Assay [2] concerns the target T2, D1 domain of human IL-2Rγ extracellular domain expressed with a C-terminal myc-myc-hexahistidine tag (human).
T2 construct: also called human IL2Rγ domain 1
T2 chain: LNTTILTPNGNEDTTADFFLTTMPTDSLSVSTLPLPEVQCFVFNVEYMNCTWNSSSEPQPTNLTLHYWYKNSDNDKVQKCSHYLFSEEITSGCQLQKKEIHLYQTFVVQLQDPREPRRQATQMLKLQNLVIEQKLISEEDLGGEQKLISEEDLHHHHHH
The assay can be described thus: SPR, mAb captured on anti-hFc, 25 C. How it is done:
as §1
(§2) The dissociation of monoclonal antibody bound IL2Rγ reagents were monitored for 8-10 minutes in HBS-ET running buffer. Kinetic association (kₐ) and dissociation (kd) rate constants were determined by fitting the real-time sensorgrams to a 1:1 binding model using Scrubber 2.0c curve fitting software. Binding dissociation equilibrium constants (KD) and dissociative half-lives (t_{1/2}) were calculated from the kinetic rate constants as: […]

In assay [3] the target is T2, D1 domain of human IL-2Rγ extracellular …. The assay can be described thus: SPR, mAb captured on anti-hFc, 37 C. How it is done: as §1, §2
In general terms: In SPR one partner is held on a chip, and binding of the other changes the refractive index at the surface.

For assay [4], the target named is T1, D2 domain of human IL2Rγ extracellular …. As to the kind of experiment: SPR, mAb captured on anti-hFc, 37 C. How it is done: as §1
Assay [5] deals with T3, human IL2Rγ (endogenously expressed on cells) (human, UniProt P31785 23-369).
T3 sequence (looked up): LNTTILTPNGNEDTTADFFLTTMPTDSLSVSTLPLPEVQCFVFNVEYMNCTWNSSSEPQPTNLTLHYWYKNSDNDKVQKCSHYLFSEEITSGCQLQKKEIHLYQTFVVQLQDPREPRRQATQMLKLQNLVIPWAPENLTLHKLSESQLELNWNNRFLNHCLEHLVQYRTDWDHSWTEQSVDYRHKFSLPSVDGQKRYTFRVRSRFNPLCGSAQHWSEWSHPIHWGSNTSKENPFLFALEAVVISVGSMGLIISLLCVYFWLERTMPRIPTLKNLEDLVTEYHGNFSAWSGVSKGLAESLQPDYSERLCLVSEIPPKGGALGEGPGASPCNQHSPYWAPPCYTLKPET
The assay can be described thus: cell-based or functional assay.

B1: H4H13541P (antibody, human IgG4 S228P, kappa, V domains shown)
VH: EVQLVESGGGVVRPGGSLRLSCAASGFIFDDYDMSWVRQPPGRGLEWVSGIDWFGGTRGYADSMKGRFTISRDNAKNSLYLQMNSLRVEDTAFYYCARGGAIVGAVTPFDYWGQGTLVTVSS
VL: DIQMTQSPSSLSASVGNRVTLSCRASQSINTYLSWYQQRPGKAPKLLIYAASSLQSGVPSRFSGSGAGTDFTLTISSLQPEDFATYYCQQSYSAPLTFGGGTKVEIKR
notes: human IgG4
As to B1, the “100 nM Ag Bound” value amounted to 10 RU in assay [1], 2 RU in assay [2], 2 RU in assay [3] and 7 RU in assay [4]. The binding result in assay [1] and in assay [2] was “no binding (tested: 100 nM)” in each case.

B2: H4H12884P (antibody, human IgG4 S228P, kappa, V domains shown)
VH: QVQLQESGPGLVKPSQTLSLTCTVSGGSISSGGYYWSWIRQHPGKGLEWIGFIYYSGKTYYNPSLKSRLTISVDTSKSQFSLKLRSVTAADTAVYYCARLGYTNSAGWFDPWGQGTLVTVSS
VL: DIQMTQSPSSLSASVGDRVTITCRASQSISSYLNWYQQKPGKAPNLLIYAASSLQSGVPSRFSGSGSGTDFTLTISSLQPEDLATYYCQQSYTTPFTFGPGTKVDIKR
notes: human IgG4
For orientation: Kd means the free concentration of one partner at which half of the binding sites on the other are occupied at equilibrium, for simple one-to-one binding. Read a low Kd as tighter binding. A word on the koff: it is the first-order rate constant of dissociation. Read a high koff as a short-lived complex. As usually defined, the kon is the second-order rate constant of association. The low end stands for slower complex formation, the high end for faster complex formation. As a reminder, the t½ is the time in which the quantity being followed falls by half. Low readings indicate fast loss, high ones slow loss. Regarding B2, in assay [1], the “100 nM Ag Bound” value was determined as 1 RU and the binding result was “no binding (tested: 100 nM)”. Also, in assay [2], the “100 nM Ag Bound” value stood at 51 RU, the Kd was 11.8 nM, the koff was 0.00196 s⁻¹ and the kon came to 166000 M⁻¹ s⁻¹. Moreover, the t½ in assay [2] was 6 min. For the same molecule, in assay [5], the “IC50; IL-7 50 pM; NK92/hIL7R/STAT3-luc” value was found to be 2.3e-09 M, the “Max Inhibition (%); IL-2 30 pM; NK92/hIL7R/STAT3-luc” value worked out at 13%, the “Max Inhibition (%); IL-4 250 pM; Ramos.2G6.4C10/STAT3-luc” value was 19% and the “Max Inhibition (%); IL-7 50 pM; NK92/hIL7R/STAT3-luc” value amounted to 34%. In assay [3], the “100 nM Ag Bound” value is 32 RU, the Kd was 32.9 nM, the koff was determined as 0.00442 s⁻¹ and the association rate constant (kon) is 134000 M⁻¹ s⁻¹. In assay [3], this molecule returned a t½ of 2.6 min. Also, in assay [4], the “100 nM Ag Bound” value was 2 RU.

B3: H4H13544P2 (antibody, human IgG4 S228P, kappa, V domains shown)
VH: QLQLQESGPGLVKPSETLSLTCTVSGGSISIKNYYWGWIRQPPGKGLEWIGSIYYSGTTYYNPSLKSRVTISVDTSKNQFSLKLSSVTAADTAVYHCARHGYSYGHGWFDPWGQGTLVTVSS
VL: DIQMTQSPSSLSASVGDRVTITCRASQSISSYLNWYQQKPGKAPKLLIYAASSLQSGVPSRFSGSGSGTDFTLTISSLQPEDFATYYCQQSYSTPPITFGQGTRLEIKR
notes: human IgG4
As for B3, in assay [1], the “100 nM Ag Bound” value was determined as 5 RU and the binding result was “no binding (tested: 100 nM)”. In addition, in assay [2], the “100 nM Ag Bound” value was determined as 24 RU, the Kd stood at 57.8 nM, the koff was 0.00207 s⁻¹ and the kon turned out to be 35800 M⁻¹ s⁻¹. This molecule registered a t½ in assay [2] of 6 min. Moreover, in assay [3], the “100 nM Ag Bound” value came out at 22 RU, binding was characterised by a dissociation constant (Kd) of 225 nM, the koff came out at 0.0105 s⁻¹ and the kon is 46400 M⁻¹ s⁻¹. In addition, the t½ in assay [3] came to 1.1 min. Moreover, in assay [4], the “100 nM Ag Bound” value amounted to 4 RU.

B4: H4H13545P2 (antibody, human IgG4 S228P, kappa, V domains shown)
VH: QVQLQQSGPGLVKPSQTLSLTCDISGDSVSSNIATWNWIRQSPSRGLEWLGRTYYRSKWYKDYAVSVKSRITINPDTSKNQFSLQVNSVTPEDTAVYYCARMTGPRYYFEYWGQGTLVTVSS
VL: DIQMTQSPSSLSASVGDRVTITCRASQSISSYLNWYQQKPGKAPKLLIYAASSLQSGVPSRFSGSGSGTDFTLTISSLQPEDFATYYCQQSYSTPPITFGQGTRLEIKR
notes: human IgG4
In the case of B4, the “100 nM Ag Bound” value in assay [1] amounted to 5 RU; in assay [2], 8 RU; in assay [3], 4 RU; in assay [4], 3 RU. Moreover, the binding result in assay [1] and in assay [2] was “no binding (tested: 100 nM)” throughout.
